Test results from article PMC3046972, “Phosphorylation-Dependent 14-3-3 Binding to LRRK2 Is Impaired by Common Mutations of Familial Parkinson's Disease” (PLoS ONE, 2011).
Where no end group is shown, it is not given here. [ ]: non-standard residue; d: D form. pS = N[C@@H](COP(=O)(O)O)C(=O)O

How the values were obtained:
Myc-14-3-3γ wild type = Myc-14-3-3γ wild type (UniProt P61981); test: co-IP; HEK-293T cells co-transfected with FLAG-LRRK2 (wild type or mutant) and Myc-14-3-3; immunoprecipitation with anti-Myc antibody overnight, washes with modified RIPA buffer (300 mM NaCl); blot with anti-FLAG; Figure 5C quantified with LI-COR Odyssey
GST-14-3-3γ = molecular target: T1, GST-14-3-3γ (UniProt P61981 1-247); test: pull-down; competition: synthetic peptide at various concentrations added to brain lysate of FLAG-LRRK2 Wt transgenic mice for 1 hour, then GST-14-3-3γ beads for 4 hours; read-out is the FLAG-LRRK2 pulled down; details: both partners purified
T1 construct: 14-3-3 gamma; also called purified GST-14-3-3γ; Sepharose bead-conjugated GST-14-3-3γ; source: bacteria (100 µM IPTG, 4 hours at 37°C), purified following the manufacturer's instruction (GE Healthcare)
T1 sequence (looked up): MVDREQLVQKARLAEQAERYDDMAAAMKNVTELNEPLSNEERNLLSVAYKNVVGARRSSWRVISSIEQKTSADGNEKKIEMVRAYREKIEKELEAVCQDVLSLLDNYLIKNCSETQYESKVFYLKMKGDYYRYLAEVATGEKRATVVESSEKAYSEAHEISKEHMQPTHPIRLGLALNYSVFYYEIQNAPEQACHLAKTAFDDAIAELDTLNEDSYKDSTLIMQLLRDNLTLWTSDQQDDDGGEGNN

Question: How did the reduction of co-immunoprecipitation with Myc-14-3-3γ compared to wild type LRRK2 (Myc-14-3-3γ wild type) turn out when “FLAG-LRRK2 S935A mutant (from UniProt Q5S006 1-2527) (natural protein)” was run?
Answer: 90%

Question: For FLAG-LRRK2 G2019S mutant, Q5S006 1-2527, which reduction of co-immunoprecipitation with Myc-14-3-3γ compared to wild type LRRK2 (Myc-14-3-3γ wild type) is on record?
Answer: < 20%

B1: phospho-peptide QRHSNpSLGPC (containing pS935 of LRRK2) (peptide)
peptide: Ac-QRHSN[pS]LGPC
notes: stretch of LRRK2 around S935; C-terminal cysteine printed only in the methods; The results print the peptide without the last C (QRHSNpSLGP); the methods print QRHSNpSLGPC; also called pS935-containing peptide; phosphorylated peptide (pS935); source: synthetic peptide (The Rockefeller University Proteomics Resource Center, HPLC purified)
Question: Does B1 bind (GST-14-3-3γ)?
Answer: binds
